These results are taken from paper PMC8109800.

Data set [1] concerns MiniChl1V2 (Chaetomium thermophilum). Kind of data set: fluorescence anisotropy. Particulars: 50 mM HEPES pH 8.0, 50 mM NaCl, 0.5 mM TCEP, 25 C; 10 nM FAM-DNA; quadratic fit. On the technique in general: In fluorescence polarisation assays a small probe gives low polarisation when free and higher when bound to something large.
Data set [2] concerns Chl1 full-length (Chaetomium thermophilum). Kind of data set: fluorescence anisotropy. The following applies: no plateau reached, low affinity; 50 mM HEPES pH 8.0, 50 mM NaCl, 0.5 mM TCEP, 25 C; 10 nM FAM-DNA; quadratic fit.

Broadly, the Kd is the equilibrium constant for the complex coming apart. Read a high Kd as weaker binding. As to 22-mer ssDNA, the Kd in data set [1] was 38 nM; in data set [2] it was more than 1000 nM.
